# Test results from patent US20190247357A1, “NANOPARTICLE FORMULATIONS AND METHODS OF MAKING AND USING THEREOF” (Abraxis BioScience, LLC, priority 2016, published 2019).
# pIC50: −log10 of the molar value.
# How the values were obtained:
# [1] = biological target: ErbB2 (UniProt P04626); assay: Phospho(Tyr1248)/Total ErbB2 binding assay, MSD whole cell lysate kit, SK-BR-3 cells treated 2 h
# [2] = biological target: ErbB2 (UniProt P04626); assay: Phospho(Tyr1248)/Total ErbB2 binding assay, MSD whole cell lysate kit, BT-474 cells treated 2 h
# [3] = tested on: A375 human melanoma cells; assay: A375 melanoma xenograft model: tumor volume change and survival; conditions: mice with tumors larger than 2000 mm^3 euthanized
# Description: A375 human melanoma cells were subcutaneously injected into mice to generate xenograft models. The tumors were allowed to grow to about 600 mm^3 before treatment according to the following protocols. Nine mice were treated for each protocol, except as noted.
# Cohort 1—Vehicle control (“Vehicle”). […] The vehicle control was administered to each mouse at a dosage of 120 μL/mouse on the second day of the experiment.
# Cohort 4—BEV12 and ABX30 on same day (“BEV12+ABX30—Same Day”).
# P-values were determined using an un-paired t-test.
# Survival time of the treated mice was also recoded. Mice with tumors larger than 2000 mm^3 were euthanized.
Substance,pIC50 [1],pIC50 [2],Median Survival [3]
"Nanoparticles with embedded trastuzumab, paclitaxel and albumin (Example 12, Batch 2, paclitaxel:trastuzumab 5.9:1) (from UniProt P02768 25-609)",9.44,9.46,–
"Nanoparticles with embedded trastuzumab, paclitaxel and albumin (Example 12, Batch 4, paclitaxel:trastuzumab 4.5:1) (from UniProt P02768 25-609)",9.54,9.37,–
"Nanoparticles with embedded trastuzumab, paclitaxel and albumin, with free mAb (Example 20, paclitaxel:trastuzumab 10:1) (from UniProt P02768 25-609)",9.39,9.28,–
"Thiolated conjugate of trastuzumab and nab-paclitaxel particles (Example 34, paclitaxel:trastuzumab 31:1) (from UniProt P02768 25-609)",9.51,–,–
bevacizumab: antiangiogenic antibody that targets vascular endothelial growth factor A (VEGF-A),–,–,38 days

# More lines, main results first:
pIC50 [1],pIC50 [2],Substance,Median Survival [3]
9.23,9.15,"Click conjugate of trastuzumab and nab-paclitaxel particles (Example 26, paclitaxel:trastuzumab 51:1) (from UniProt P02768 25-609)",–
9.45,9.46,"Nanoparticles with embedded trastuzumab, paclitaxel and albumin (Example 12, Batch 1, paclitaxel:trastuzumab 5.6:1) (from UniProt P02768 25-609)",–
9.43,9.34,"Nanoparticles with embedded trastuzumab, paclitaxel and albumin (Example 12, Batch 3, paclitaxel:trastuzumab 6.7:1) (from UniProt P02768 25-609)",–
9.25,9.54,"SM(PEG)6 conjugate of trastuzumab and isolated nab-paclitaxel particles (Example 23, paclitaxel:trastuzumab 92.5:1) (from UniProt P02768 25-609)",–
9.52,9.36,"SM(PEG)6 conjugate of trastuzumab and nab-paclitaxel particles with free mAb (Example 35, paclitaxel:trastuzumab 10:1) (from UniProt P02768 25-609)",–
9.01,9.67,"Thiolated conjugate of trastuzumab and nab-paclitaxel particles (Example 33, paclitaxel:trastuzumab 12:1) (from UniProt P02768 25-609)",–
